± gives the standard deviation of the averaged measurements.
Assay: total protein half-life in vivo (active degradation + dilution); higher = more stable protein
[1] = wild type E. coli NCM3722, growth: C-lim chemostat, doubling time 3 h
[2] = E. coli NCM3722 delta-clpP delta-lon delta-hslV, growth: N-lim chemostat, doubling time 6 h
[3] = E. coli NCM3722 delta-clpP, growth: N-lim chemostat, doubling time 6 h
[4] = E. coli NCM3722 delta-hslV, growth: N-lim chemostat, doubling time 6 h
[5] = E. coli NCM3722 delta-lon, growth: N-lim chemostat, doubling time 6 h
[6] = E. coli NCM3722 delta-smpB, growth: N-lim chemostat, doubling time 6 h
[7] = wild type E. coli NCM3722, growth: C-lim chemostat, doubling time 6 h
[8] = wild type E. coli NCM3722, growth: C-lim chemostat, doubling time 12 h
[9] = wild type E. coli NCM3722, growth: N-lim chemostat, doubling time 6 h
[10] = wild type E. coli NCM3722, growth: N-lim chemostat, doubling time 12 h
[11] = wild type E. coli NCM3722, growth: P-lim chemostat, doubling time 6 h
[12] = wild type E. coli NCM3722, growth: P-lim chemostat, doubling time 12 h

Row | Sequence | total protein half-life in vivo [1] | total protein half-life in vivo [2] | total protein half-life in vivo [3] | total protein half-life in vivo [4] | total protein half-life in vivo [5] | total protein half-life in vivo [6] | total protein half-life in vivo [7] | total protein half-life in vivo [8] | total protein half-life in vivo [9] | total protein half-life in vivo [10] | total protein half-life in vivo [11] | total protein half-life in vivo [12]
1 | MQKREPVIIAPDYTDDELYEWMRQKINAAQDLKWANEARAKQAENLSALEQDITNLEKAAALSIARMITYPR | 3.16 h |  |  |  |  |  |  |  |  |  |  | 
2 | MQLKRVAEAKLPTPWGDFLMVGFEELATGHDHVALVYGDISGHTPVLARVHSECLTGDALFSLRCDCGFQLEAALTQIAEEGRGILLYHRQEGRNIGLLNKIRAYALQDQGYDTVEANHQLGFAADERDFTLCADMFKLLGVNEVRLLTNNPKKVEILTEAGINIVERVPLIVGRNPNNEHYLDTKAEKMGHLLNK [P0A7I7] | 2.92 ± 0.095 h | 4.5 ± 0.35 h | 4.52 ± 0.67 h | 4.48 ± 0.35 h | 4.54 ± 0.19 h | 4.54 ± 0.23 h | 5.1 ± 0.3 h | 8.93 ± 0.54 h | 4.27 ± 0.17 h | 6.85 ± 0.2 h | 6.08 ± 0.73 h | 10.3 ± 0.8 h
3 | MQLNITGNNVEITEALREFVTAKFAKLEQYFDRINQVYVVLKVEKVTHTSDATLHVNGGEIHASAEGQDMYAAIDGLIDKLARQLTKHKDKLKQH [P0AFX0] | 2.51 ± 0.14 h | 4.19 ± 0.41 h | 3.97 ± 0.51 h | 3.49 ± 0.22 h | 4.08 ± 0.13 h | 3.67 ± 0.043 h | 4.75 ± 0.17 h | 8.14 ± 0.53 h | 3.39 ± 0.5 h | 7.37 ± 0.34 h | 4.21 ± 0.12 h | 7.16 ± 0.65 h
4 | MQNITQSWFVQGMIKATTDAWLKGWDERNGGNLTLRLDDADIAPYHDNFHQQPRYIPLSQPMPLLANTPFIVTGSGKFFRNVQLDPAANLGIVKVDSDGAGYHILWGLTNEAVPTSELPAHFLSHCERIKATNGKDRVIMHCHATNLIALTYVLENDTAVFTRQLWEGSTECLVVFPDGVGILPWMVPGTDEIGQATAQEMQKHSLVLWPFHGVFGSGPTLDETFGLIDTAEKSAQVLVKVYSMGGMKQTISREELIALGKRFGVTPLASALAL |  | 3.93 h | 2.62 h | 2.77 ± 0.41 h |  | 2.45 h | 5.1 h | > 16 h |  | 3.97 h | 4.9 h | 10.1 ± 0.11 h
5 | MQNKLASGARLGRQALLFPLCLVLYEFSTYIGNDMIQPGMLAVVEQYQAGIDWVPTSMTAYLAGGMFLQWLLGPLSDRIGRRPVMLAGVVWFIVTCLAILLAQNIEQFTLLRFLQGISLCFIGAVGYAAIQESFEEAVCIKITALMANVALIAPLLGPLVGAAWIHVLPWEGMFVLFAALAAISFFGLQRAMPETATRIGEKLSLKELGRDYKLVLKNGRFVAGALALGFVSLPLLAWIAQSPIIIITGEQLSSYEYGLLQVPIFGALIAGNLLLARLTSRRTVRSLIIMGGWPIMIGLLVAAAATVISSHAYLWMTAGLSIYAFGIGLANAGLVRLTLFASDMSKGTVSAAMGMLQMLIFTVGIEISKHAWLNGGNGLFNLFNLVNGILWLSLMVIFLKDKQMGNSHEG [P0AEY8] | 3.11 h |  |  |  |  |  |  |  |  |  | 5.65 ± 0.22 h | 11 ± 2.6 h
6 | MQNSALKAWLDSSYLSGANQSWIEQLYEDFLTDPDSVDANWRSTFQQLPGTGVKPDQFHSQTREYFRRLAKDASRYSSTISDPDTNVKQVKVLQLINAYRFRGHQHANLDPLGLWQQDKVADLDPSFHDLTEADFQETFNVGSFASGKETMKLGELLEALKQTYCGPIGAEYMHITSTEEKRWIQQRIESGRATFNSEEKKRFLSELTAAEGLERYLGAKFPGAKRFSLEGGDALIPMLKEMIRHAGNSGTREVVLGMAHRGRLNVLVNVLGKKPQDLFDEFAGKHKEHLGTGDVKYHMGFSSDFQTDGGLVHLALAFNPSHLEIVSPVVIGSVRARLDRLDEPSSNKVLPITIHGDAAVTGQGVVQETLNMSKARGYEVGGTVRIVINNQVGFTTSNPLDARSTPYCTDIGKMVQAPIFHVNADDPEAVAFVTRLALDFRNTFKRDVFIDLVCYRRHGHNEADEPSATQPLMYQKIKKHPTPRKIYADKLEQEKVATLEDATEMVNLYRDALDAGDCVVAEWRPMNMHSFTWSPYLNHEWDEEYPNKVEMKRLQELAKRISTVPEAVEMQSRVAKIYGDRQAMAAGEKLFDWGGAENLAYATLVDEGIPVRLSGEDSGRGTFFHRHAVIHNQSNGSTYTPLQHIHNGQGAFRVWDSVLSEEAVLAFEYGYATAEPRTLTIWEAQFGDFANGAQVVIDQFISSGEQKWGRMCGLVMLLPHGYEGQGPEHSSARLERYLQLCAEQNMQVCVPSTPAQVYHMLRRQALRGMRRPLVVMSPKSLLRHPLAVSSLEELANGTFLPAIGEIDELDPKGVKRVVMCSGKVYYDLLEQRRKNNQHDVAIVRIEQLYPFPHKAMQEVLQQFAHVKDFVWCQEEPLNQGAWYCSQHHFREVIPFGASLRYAGRPASASPAVGYMSVHQKQQQDLVNDALNVE [P0AFG3] | 2.51 ± 0.028 h | 5.96 ± 0.15 h | 6.43 ± 0.87 h | 5.92 ± 0.14 h | 5.36 ± 0.23 h | 4.99 ± 0.18 h | 5.13 ± 0.19 h | 8.677 ± 0.03 h | 5.377 ± 0.027 h | 10.1 ± 0.89 h | 4.72 ± 0.17 h | 9.32 ± 0.68 h
7 | MQQQKPLEGAQLVIMTIALSLATFMQVLDSTIANVAIPTIAGNLGSSLSQGTWVITSFGVANAISIPLTGWLAKRVGEVKLFLWSTIAFAIASWACGVSSSLNMLIFFRVIQGIVAGPLIPLSQSLLLNNYPPAKRSIALALWSMTVIVAPICGPILGGYISDNYHWGWIFFINVPIGVAVVLMTLQTLRGRETRTERRRIDAVGLALLVIGIGSLQIMLDRGKELDWFSSQEIIILTVVAVVAICFLIVWELTDDNPIVDLSLFKSRNFTIGCLCISLAYMLYFGAIVLLPQLLQEVYGYTATWAGLASAPVGIIPVILSPIIGRFAHKLDMRRLVTFSFIMYAVCFYWRAYTFEPGMDFGASAWPQFIQGFAVACFFMPLTTITLSGLPPERLAAASSLSNFTRTLAGSIGTSITTTMWTNRESMHHAQLTESVNPFNPNAQAMYSQLEGLGMTQQQASGWIAQQITNQGLIISANEIFWMSAGIFLVLLGLVWFAKPPFGAGGGGGGAH [P0AEJ0] | 3.78 h | 7.36 h | 6.64 ± 0.3 h | 6.52 ± 0.46 h | 5.94 h | 5.55 ± 0.64 h |  | > 16 h |  |  | 5.89 h | 10.4 ± 0.82 h
8 | MQQRRPVRRALLSVSDKAGIVEFAQALSARGVELLSTGGTARLLAEKGLPVTEVSDYTGFPEMMDGRVKTLHPKVHGGILGRRGQDDAIMEEHQIQPIDMVVVNLYPFAQTVAREGCSLEDAVENIDIGGPTMVRSAAKNHKDVAIVVKSSDYDAIIKEMDDNEGSLTLATRFDLAIKAFEHTAAYDSMIANYFGSMVPAYHGESKEAAGRFPRTLNLNFIKKLDMRYGENSHQQAAFYIEENVKEASVATATQVQGKALSYNNIADTDAALECVKEFAEPACVIVKHANPCGVAIGNSILDAYDRAYKTDPTSAFGGIIAFNRELDAETAQAIISRQFVEVIIAPSASEEALKITAAKQNVRVLTCGQWGERVPGLDFKRVNGGLLVQDRDLGMVGAEELRVVTKRQPSEQELRDALFCWKVAKFVKSNAIVYAKNNMTIGIGAGQMSRVYSAKIAGIKAADEGLEVKGSSMASDAFFPFRDGIDAAAAAGVTCVIQPGGSIRDDEVIAAADEHGIAMLFTDMRHFRH | 3.19 ± 0.3 h | 5.11 ± 0.42 h | 4.51 ± 0.51 h | 4.73 ± 0.56 h | 4.99 ± 0.032 h | 4.41 ± 0.28 h | 5.88 ± 0.38 h | 9.3 ± 0.86 h | 4.36 ± 0.22 h | 6.9 ± 0.074 h | 5.961 ± 0.037 h | 11.9 ± 0.6 h
9 | MQRARCYLIGETAVVLELEPPVTLASQKRIWRLAQRLVDMPNVVEAIPGMNNITVILRNPESLALDAIERLQRWWEESEALEPESRFIEIPVVYGGAGGPDLAVVAAHCGLSEKQVVELHSSVEYVVWFLGFQPGFPYLGSLPEQLHTPRRAEPRLLVPAGSVGIGGPQTGVYPLATPGGWQLIGHTSLSLFDPARDEPILLRPGDSVRFVPQKEGVC [P0AAV4] | 3.51 ± 0.27 h | 5.48 ± 0.23 h | 5.44 ± 0.087 h | 5.73 ± 0.79 h | 7.2 ± 0.64 h | 4.972 ± 0.042 h | 6.26 ± 0.1 h | 11.3 ± 0.43 h | 5.41 ± 0.97 h | 11.3 ± 0.39 h | 6.04 ± 0.51 h | 
10 | MQRETVWLVEDEQGIADTLVYMLQQEGFAVEVFERGLPVLDKARKQVPDVMILDVGLPDISGFELCRQLLALHPALPVLFLTARSEEVDRLLGLEIGADDYVAKPFSPREVCARVRTLLRRVKKFSTPSPVIRIGHFELNEPAAQISWFDTPLALTRYEFLLLKTLLKSPGRVWSRQQLMDSVWEDAQDTYDRTVDTHIKTLRAKLRAINPDLSPINTHRGMGYSLRGL | 2.74 ± 0.18 h | 5.69 ± 1.5 h | 4.02 ± 0.41 h | 3.55 h | 4.49 ± 0.45 h | 3.92 h | 4.86 ± 0.057 h | 11.5 ± 3.6 h | 3.99 h | 6.73 ± 0.16 h | 4.04 h | 7.89 ± 0.58 h
11 | MQSERIYLVWAHPRHDSLTAHIADAIHQRAMERKIQVTELDLYRRNFNPVMTPEDEPDWKNMDKRYSPEVHQLYSELLEHDTLVVVFPLWWYSFPAMLKGYIDRVWNNGLAYGDGHKLPFNKVRWVALVGGDKESFVQMGWEKNISDYLKNMCSYLGIEDADVTFLCNTVVFDGEELHASYYQSLLSQVRDMVDAL | 2.98 ± 0.16 h |  | 4.52 ± 0.47 h | 4 h | 4.84 ± 0.22 h | 4.07 ± 0.28 h | 6.87 ± 1.5 h | 9.75 ± 0.92 h | 4.62 ± 0.12 h | 7.48 ± 1 h | 5.643 ± 0.052 h | 11.5 ± 1.1 h
12 | MQSWYLLYCKRGQLQRAQEHLERQAVNCLAPMITLEKIVRGKRTAVSEPLFPNYLFVEFDPEVIHTTTINATRGVSHFVRFGASPAIVPSAVIHQLSVYKPKDIVDPATPYPGDKVIITEGAFEGFQAIFTEPDGEARSMLLLNLINKEIKHSVKNTEFRKL [P0AFW0] | 3.08 ± 0.73 h | 4.25 ± 0.76 h | 3.41 ± 0.17 h | 3.23 h | 3.931 ± 0.015 h | 2.52 ± 0.22 h | 5.24 ± 1.7 h | 6.64 ± 1.1 h | 3.18 h | 5.43 ± 1.4 h | 4.35 ± 0.79 h | 7.71 h
13 | MQTEHVILLNAQGVPTGTLEKYAAHTADTRLHLAFSSWLFNAKGQLLVTRRALSKKAWPGVWTNSVCGHPQLGESNEDAVIRRCRYELGVEITPPESIYPDFRYRATDPSGIVENEVCPVFAARTTSALQINDDEVMDYQWCDLADVLHGIDATPWAFSPWMVMQATNREARKRLSAFTQLK | 3.09 ± 0.08 h | 4.63 ± 0.67 h | 4.86 ± 0.81 h | 4.79 ± 0.39 h | 4.68 ± 0.56 h | 4.42 ± 0.16 h | 6.016 ± 0.044 h | 8.96 ± 0.18 h | 4.39 h | 7.89 h | 5.61 h | 13.1 ± 1.7 h
14 | MQVKTQSCVVAGKKTVAVTEQTIDWNNNGTLVQITRGGICGSDLHYYQEGKVGNFMIKAPMVLGHEVIGKVIHSDSSELHEGQTVAINPSKPCGHCKYCIEHNENQCTDMRFFGSAMYFPHVDGGFTRYKMVETSQCVPYPAKADEKVMAFAEPLAVAIHAAHQAGELQGKRVFISGVGPIGCLIVSAVKTLGAAEIVCADVSPRSLSLGKEMGADVLVNPQNDDMDHWKAEKGYFDVSFEVSGHPSSVNTCLEVTRARGVMVQVGMGGAMAEFPMMTLIGKEISLRGSFRFTSEFNTAVSWLANGVINPLPLLSAEYPFTDLEEALRFAGDKTQAAKVQLVF | 1.348 ± 0.0073 h |  |  |  |  |  | 2.71 h | 5.81 h |  |  |  | 
